Data taken from the supplement of paper PMC9170038.

System: MS2 coat protein
Experiment: apparent KD of MS2 coat protein; designed switch direction (-1 OFF switch, 1 ON switch): -1; higher = weaker reporter binding
In short: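 For each design, the apparent KD is the median over clusters of curves fitted to normalised cluster fluorescence. Clusters held RNA switches with common flanks, transcribed on Illumina chips by stalled E. coli RNA polymerase. These were titrated with SNAP-549-labelled MS2 coat protein, doubling from 0.7 or 1.5 nM to 3 µM, without input, with 200 uM small-molecule ligand, or with an oligonucleotide input.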

[1] = input ligand: microRNA oligo, concentration not stated
[2] = Eterna round: R95, input ligand: FMN 200 uM
[3] = Eterna round: R95, input ligand: microRNA oligo, concentration not stated
[4] = Eterna round: R95, input ligand: none

Row | Sequence | apparent KD of MS2 coat protein (input ligand: FMN 200 uM) | apparent KD of MS2 coat protein (input ligand: none) | apparent KD of MS2 coat protein [3] | other results
1 | CGGAUGUCAGGAUAUCGUGCAUACAACGAAAGUUCUAUGUGCGAGAAGGGACAUGAGGAUCACCCAUGUUUACG [Omei Ex4 A11] (Eterna round: R97, puzzle: Exclusion 4) | 206 nM | 34.9 nM | – | –
2 | UUUAUUUUGCAAGGAUAUGUUUAAUUUUAGUUUCCUUAAACAUGAGGAUCACCCAUGUUAUACUUACAGAAGGUGCAUAAUUUU [JR_ExcNG2_Sub036] (Eterna round: R96, puzzle: Exclusion NG 2) | – | – | – | apparent KD of MS2 coat protein [1]: 73.3 nM
3 | AAGAAACAUGAGGAUCACCCAUGUGAGGAUAUGAAAAAGAAAAUAAAAUAAAUAAGAAUCAGAAGGCACAAAGG [Mat - Mod of Hog D5] (puzzle: Exclusion 1) | – | – | 45.5 nM | apparent KD of MS2 coat protein [2]: 40.6 nM; apparent KD of MS2 coat protein [4]: 40.2 nM
4 | ACAAGCUUUUUGCUCGUCUUGUAGAAACGUGAGAGCGAGACAUGAGGAUCACCCAUGUAAAGGCAGUAGGUGGAGAU [JR_SV3TOV2_Sub026] (puzzle: Sensor v3, turn-off variant 2) | – | – | 64.4 nM | apparent KD of MS2 coat protein [2]: 36.9 nM; apparent KD of MS2 coat protein [4]: 58.2 nM
5 | UUGUUACAUGAGGAUCACCCAUGUGAGGAUAUGGUUAAGUAAUGUAAUGUAAAGUAAUCCAGAAGGCACAUGUU [1st #25] (Eterna round: R97, puzzle: Exclusion 1) | 353 nM | 196 nM | – | –
6 | ACAAGCUCUUUGCAACUUAGUUUUGUUGCUUCGUAGGUAACAUGAGGAUCACCCAUGUAAGACUGAUGUCGUCUUAU [JR_SV3TOV2_Sub086] (Eterna round: R96, puzzle: Sensor v3, turn-off variant 2) | 36.8 nM | 38.2 nM | – | apparent KD of MS2 coat protein [1]: 20.6 nM
7 | AAAAGAAUAAAAGGAUAUAGGAAAGGAAGUGUACUAGAAGGUUUGUUAACAUGAGGAUCACCCAUGUGCUCAGACACAGGGUGC [PowerStrip EXNG 1.3] (Eterna round: R96, puzzle: Exclusion NG 1) | – | – | – | apparent KD of MS2 coat protein [1]: 91.5 nM
8 | UUUUAACAUGAGGAUCACCCAUGUGAGGAUAUCGAAAUUUAUAUUUAUAUUUAUAUAUCGAGAAGGCACAUUUU [JMF 96] (puzzle: Exclusion 1) | – | – | 118 nM | –
9 | AGUACUAACACGCUAGUGUUAGUACAAUAAGCUUGUGAAACAUGAGGAUCACCCAUGUCCUCAUAAGCUCGUCUUAU [salish99_TOv2_r3_058] (puzzle: Sensor v3, turn-off variant 2) | – | – | 612 nM | apparent KD of MS2 coat protein [2]: 16.4 nM; apparent KD of MS2 coat protein [4]: 16.1 nM
10 | GUGUAGAUAGGAUAUGCUGGAAUCUAGCGAAGCUAGGUUCCACAUGAGGAUCACCCAUGUAGAAGGGUCUACAC [Dot plot directed A v11] (puzzle: Exclusion 2) | – | – | 127 nM | –
11 | AAAAAGCGAGGAUAUACAUGAGGAUCACCCAUGUGAGGGCACCGCGGGCGCGGGACCGGUAGAAGGCGCAAAAA [Exc;s3-II] (puzzle: Exclusion 3) | – | – | 24.1 nM | apparent KD of MS2 coat protein [2]: 33.6 nM; apparent KD of MS2 coat protein [4]: 38.5 nM
12 | GGUGGACAUGAGGAUCACCCAUGUGAGGAUAUCGGCCGGCUAGUGGCGGCUGGCUUCACGAGAAGGCGCAUAGU [Exclusion 1 V78] (puzzle: Exclusion 1) | – | – | 65.4 nM | –
13 | GUUGUUUAUGUAGGAUAUGCAAGGCGAACCUAAGCAGAAGGACAUGAGGAUCACCCAUGUAUUGCGGUCUGCGUUCAGAUCGCU [salish99_ExNG1_r4_014] (Eterna round: R96, puzzle: Exclusion NG 1) | 56.8 nM | 20.1 nM | – | apparent KD of MS2 coat protein [1]: 16.3 nM
14 | UUAACAUUCGUCAGGAUAUUUGCUCGGUGUACGAGAGAGAAGGGACAUGAGGAUCACCCAUGUGACUUCAGCAA [Eternabot (Original) Solution 2] (Eterna round: R97, puzzle: Brourd's mod of Exclusion 4) | 19.6 nM | 15.1 nM | – | –
15 | GCGCACCUACCAAAAGGUAGGCCGACAUGAGGAUCACCCAUGUAGGAUAUCGAUUGCUUUGCAGUCGAGAAGGACGUGAUGCGC [JL ENG3 3.80 Mod 18] (Eterna round: R96, puzzle: Exclusion NG 3) | 20.1 nM | 19.4 nM | – | apparent KD of MS2 coat protein [1]: 14.7 nM
16 | UAGAUACAUGAGGAUCACCCAUGUGAGGAUAUGAGAAUUAUAUUAAAUGAAUGUAGUAUCAGAAGGCACAAAGG [JR_Ex1_Sub049] (Eterna round: R97, puzzle: Exclusion 1) | 197 nM | 130 nM | – | –
17 | GUCAGCUCGUGAGGAUAUACAUGAUAGAUCGAUUAAUUAAUUAAUUUAACAUGAGGAUCACCCAUGUAGAAGGCACGAGCUGAU [ENG2/1-A2] (Eterna round: R96, puzzle: Exclusion NG 2) | – | – | – | apparent KD of MS2 coat protein [1]: 35.8 nM

Row | Sequence | apparent KD of MS2 coat protein (input ligand: FMN 200 uM) | apparent KD of MS2 coat protein (input ligand: none) | apparent KD of MS2 coat protein [3] | other results
18 | GAUUUGUAAGGAUAUCGUGCAAGUUUCAAAAGAGGCUUGUGCGAGAAGGUACAUGAGGAUCACCCAUGUAGGUU [Omei Ex4 B13] (Eterna round: R97, puzzle: Exclusion 4) | 42.6 nM | 24.1 nM | – | –
19 | UCGUGAUUAGAGGAUAUAUUAAGGGUCAGAACAAUAGAAGGCUAAACAUGAGGAUCACCCAUGUAAAUGGUUUU [JR_Ex6_Sub058] (Eterna round: R97, puzzle: Exclusion 6) | 183 nM | 70.7 nM | – | –
20 | GCACAGGCAGGAUAUACAUGAGGAUCACCCAUGUGAUCCCUUAAGUACAAAAGUACUAGUAGAAGGGCCUGUGC [Omei Ex3 Model Bachelor's Dilema v47] (Eterna round: R97, puzzle: Exclusion 3) | 646 nM | 1210 nM | – | –
21 | AGUACUAACACGAGUGUGUUAGUACAAUAAGCUUGUGAAACAUGAGGAUCACCCAUGUCCUCAUAAGCUCGUCUUAU [salish99_TOv2_r3_073] (puzzle: Sensor v3, turn-off variant 2) | – | – | 516 nM | apparent KD of MS2 coat protein [2]: 17.8 nM; apparent KD of MS2 coat protein [4]: 15.1 nM
22 | UCCUCGUCAGGAUAUGUCUCGACGCGGUCCGCGUGCGGUCAACAGAAGGGACAUGAGGAUCACCCAUGUGCAGA [Eternabot (Original) Solution 38] (Eterna round: R97, puzzle: Exclusion 4) | 228 nM | 204 nM | – | –
23 | CUCUUGUGAGGAUAUCAGGUGUGCUAGCGUACUGGUACAUCUGAGAAGGCACAUGAGGAUCACCCAUGUUUCUA [Mat - Exclusion 4 - Mod of JL - D40] (puzzle: Exclusion 4) | – | – | 93.8 nM | –
24 | ACCUCACAUGAGGAUCACCCAUGUCAGGAUAUCCAACAUGCUCCCAGGACCAAGCAUAGGAGAAGGGACAUGCG (Eterna round: R97, puzzle: Exclusion 1) | 76.5 nM | 27.2 nM | – | –
25 | AAAUCGGAGGAGGAUAUGGUACAGGAAAUGGUGCCAGAAGGUUUCACAUGAGGAUCACCCAUGUCAAAUAGCGA [EX6 #60] (Eterna round: R97, puzzle: Exclusion 6) | 19.1 nM | 27.1 nM | – | –
26 | AAUCCUGAAGUUAGGAUAUGAAGUAUCACUACACUUUAGAAGGAACUUGAGGAUCACCCAAGUAGCCGUGAGGC [jl-bmx4.4.65 ViennaUCT mod] (Eterna round: R97, puzzle: Brourd's mod of Exclusion 4) | 68 nM | 22.4 nM | – | –
27 | CGACUGUGAGGAUAUGGUGAGUAGUGCCUGAGCGCUGCUCACCAGAAGGCACAUGAGGAUCACCCAUGUAUGAC [Mat - Exclusion 4 - Mod of JL - D8] (puzzle: Exclusion 4) | – | – | 72.8 nM | –
28 | UUGUUGUAUGUAGGAUAUGCAUAUUGUUAUUAUGCAGAAGGACAUGAGGAUCACCCAUGUAUAUUACUAUUAUGUACUAUAUAU [MOD of Hoglahoo's a different Title] (Eterna round: R96, puzzle: Exclusion NG 1) | 106 nM | 32.6 nM | – | apparent KD of MS2 coat protein [1]: 25.5 nM
29 | UCAACGCAAGGAUAUACUUGCGGUGAUGUUCGAAAUCUUCUACUUGAGGAUCACCCAAGUAGAAGGUGCGGUGA [jl-ex2.4.65 ViennaUCT mod] (Eterna round: R97, puzzle: Exclusion 2) | 12.8 nM | 12.9 nM | – | –
30 | UUUAAUUUUUUUUUUUUACAAGCUUUUUGCUCGUCUUAUACAUGAGGAUCACCCAUGUGAGUGGAGGGUAAAUUAUC [JMF 88] (puzzle: Sensor v3, turn-off variant 2) | – | – | 45.8 nM | apparent KD of MS2 coat protein [2]: 17.8 nM; apparent KD of MS2 coat protein [4]: 16.3 nM
31 | GGGAAGAACCAACAAGUAGACAUGAGGAUCACCCAUGUAGACUUCAUGUGCACGCAAAGCGUGCAAGCUCGUCUUAU [AK-miRNA-r3-14.4] (Eterna round: R97, puzzle: Sensor, turn-off variant 1) | 22.9 nM | 19.8 nM | – | –
32 | ACAUGACUGCUAGGAUAUAGAUGACAUGAGGAUCACCCAUGUUGUCCCAUGUUGAUGGAAACCGACUAGAAGGAGCAGCAUAUG [Ex NG2 #11] (Eterna round: R96, puzzle: Exclusion NG 2) | 47.4 nM | 35 nM | – | apparent KD of MS2 coat protein [1]: 22.9 nM
33 | GUAGAUCGAGUUAGGAUAUGAUUACUAUCCGAAAAUCAGAAGGAACUUGAGGAUCACCCAAGUAUAGAUGAUAU [JR_BMEx4_Sub053] (Eterna round: R97, puzzle: Brourd's mod of Exclusion 4) | 21.7 nM | 16.9 nM | – | –
34 | CCGUCCUCAGUUAGGAUAUCUUCCGGAGAACGAAAGGAGAAGGAACAUGAGGAUCACCCAUGUGGCCCGAUGGA [Eternabot (Original) Solution 16] (Eterna round: R97, puzzle: Brourd's mod of Exclusion 4) | 85.3 nM | 29.3 nM | – | –
